One may read the Km as the concentration of substrate that gives half-maximal velocity.

Holding throughout (type): biochemical
Series [1] in a line: Reductive amination of PFPA, spectrophotometric assay at 340 nm. Conditions: 500 mM NH4Cl/NH4OH pH 9.6, 200 μM NADH; for kcat, amination of PFPA: apparent; for Km: read-out: KM, amination of PFPA. On the procedure:
(§1) Activity of purified proteins was measured using a spectrophotometric assay at 340 nm, corresponding to the cofactor nicotinamide adenine dinucleotide (NADH, ε340=6220 M^−1 cm^−1) (Dawson, et al., Clarendon Press, (1989). For reductive amination, reactions took place in 500 mM NH4Cl/NH4OH at pH 9.6, with 200 μM NADH and 20 mM of the ketone substrate, unless otherwise specified. For oxidative deamination, reactions took place in 0.1 M NaHCO3/Na2CO3 buffer at pH 10.0, with 1 mM NAD+ with 10 mM of the amine substrate of interest. All reactions were performed at 25° C. unless otherwise specified. Enzyme was added in 10 μL aliquots in dilute concentrations. Enzyme concentrations varied upon activity levels with the substrate present, but were dilute enough to ensure linear conversion kinetics over the analytical time period (10 min to 30 min). Specific activities were then calculated from the stoichiometric conversion of cofactor as determine by the change in absorbance at 340 nm over time.
The activity of the purified protein was evaluated using a spectrophotometric assay at 340 nm as described in Section 3.2.3 at 25° C. in various concentrations of NH4Cl/NH4OH buffer pH 9.6.
Active variants were identified by the rate of change in absorbance at 340 nm, corresponding to the fastest activity. […] Some variants consumed the cofactor too quickly (<5 min) to be observed over multiple time points, and gave low absorbance in the initial time point. These variants were included for further characterization. The successful variants were sequenced (MWG Operon), and each unique sequence was expressed in pET28a/BL21 for histag purification and determination of kcat and KM values with PFPA.

Series [2] in a line: Reductive amination, spectrophotometric assay at 340 nm. The note with it: for Amination Activity 40 mM MIBK, kcat: 500 mM NH4Cl/NH4OH pH 9.6, 200 μM NADH, 25° C.; for Reductive amination specific activity: maximum specific activity, nonlinear fit. On the procedure: as §1
The nature of series [3]: Oxidative deamination, spectrophotometric assay at 340 nm. The note with it: for Deamination Activity 40 mM 1,3-DMBA, kcat: 0.1M Glycine pH 10.0, 1 mM NAD+, 25° C.; for Oxidative deamination specific activity: maximum specific activity, 1,3-DMBA. On the procedure: as §1, with “For oxidative deamination, reactions took place in 0.1 M NaHCO3/Na2CO3 buffer at pH 10.0, with 1 mM NAD+ with 10 mM of the amine substrate of interest.” left out

Test in series [4]: as above
The note with it: 20 mM substrate. On the procedure:
as §1, with “For oxidative deamination, reactions took place in 0.1 M NaHCO3/Na2CO3 buffer at pH 10.0, with 1 mM NAD+ with 10 mM of the amine substrate of interest.” left out
The enantioselectivity was initially estimated by measuring the deamination activity toward individual enantiomers of methylbenzylamine (MBA). […] A preference towards (R)-MBA over the corresponding (S)-enantiomer was evident in the discrepancies between the deamination activities of 0.586 U mg^−1 and 0.002 U mg^−1, respectively. These preliminary results were corroborated through direct measurement of the enantioselectivity of the MIBK amination in producing chiral 1,3-DMBA.

The mark [5] stands for this setting: MIBK substrate, read-out: KM (reductive amination).
Setting [6] is: purified LeuDH library 10/11 hits.
The mark [7] stands for this setting: purified LeuDH library 10/11 hits, read-out: Amination of MIBK KM.
The mark [8] stands for this setting: 1,3-DMBA substrate, read-out: KM (oxidative deamination).
The mark [9] stands for this setting: purified LeuDH library 10/11 hits, read-out: Deamination of 1,3-DMBA KM.

B1: K77W N276E: PheDH-AmDH double variant, SEQ ID NO:3; PheDH library 1 hit 7F10 (protein)
chain: SLVEKTSIIKDFTLFEKMSEHEQVVFCNDPATGLRAIIAIHDTTLGPALGGCRMQPYNSVEEALEDALRLSKGMTYWCAASDVDFGGGKAVIIGDPQKDKSPELFRAFGQFVDSLGGRFYTGTDMGTNMEDFIHAMKETNCIVGVPEAYGGGGDSSIPTAMGVLYGIKATNKMLFGKDDLGGVTYAIQGLGKVGYKVAEGLLEEGAHLFVTDINEQTLEAIQEKAKTTSGSVTVVASDEIYSQEADVFVPCAFGGVVNDETMKQFKVKAIAGSANEQLLTEDHGRHLADKGILYAPDYIVNSGGLIQVADELYEVNKERVLAKTKHIYDAILEVYQQAELDQITTMEAANRMCEQRMAARGRRNSFFTSSVKPKWDIRN
In the case of B1, in series [1], the “kcat, amination of PFPA” value came to 2.63 s⁻¹ and the Km was determined as 5.32 mM. Further, in series [1] (listed as 7F10), the “kcat, amination of PFPA” value was found to be 2.631 ± 0.159 s⁻¹ and the Michaelis-Menten constant (Km) came to 5.3 ± 0.6 mM.

B2: Lys77Met: B. badius PheDH single variant (protein, listed as Bacillus badius)
chain: SLVEKTSIIKDFTLFEKMSEHEQVVFCNDPATGLRAIIAIHDTTLGPALGGCRMQPYNSVEEALEDALRLSKGMTYMCAASDVDFGGGKAVIIGDPQKDKSPELFRAFGQFVDSLGGRFYTGTDMGTNMEDFIHAMKETNCIVGVPEAYGGGGDSSIPTAMGVLYGIKATNKMLFGKDDLGGVTYAIQGLGKVGYKVAEGLLEEGAHLFVTDINEQTLEAIQEKAKTTSGSVTVVASDEIYSQEADVFVPCAFGGVVNDETMKQFKVKAIAGSANNQLLTEDHGRHLADKGILYAPDYIVNSGGLIQVADELYEVNKERVLAKTKHIYDAILEVYQQAELDQITTMEAANRMCEQRMAARGRRNSFFTSSVKPKWDIRN
Regarding B2, the “Amination Activity 40 mM MIBK, kcat” value in series [2] was determined as 0.0009 ± 0.000 s⁻¹. Further, the “Deamination Activity 40 mM 1,3-DMBA, kcat” value in series [3] came out at 0.0033 ± 0.000 s⁻¹.

B3: Asn276Val: B. badius PheDH single variant (protein, listed as Bacillus badius)
chain: SLVEKTSIIKDFTLFEKMSEHEQVVFCNDPATGLRAIIAIHDTTLGPALGGCRMQPYNSVEEALEDALRLSKGMTYKCAASDVDFGGGKAVIIGDPQKDKSPELFRAFGQFVDSLGGRFYTGTDMGTNMEDFIHAMKETNCIVGVPEAYGGGGDSSIPTAMGVLYGIKATNKMLFGKDDLGGVTYAIQGLGKVGYKVAEGLLEEGAHLFVTDINEQTLEAIQEKAKTTSGSVTVVASDEIYSQEADVFVPCAFGGVVNDETMKQFKVKAIAGSANVQLLTEDHGRHLADKGILYAPDYIVNSGGLIQVADELYEVNKERVLAKTKHIYDAILEVYQQAELDQITTMEAANRMCEQRMAARGRRNSFFTSSVKPKWDIRN
In the case of B3, the “Amination Activity 40 mM MIBK, kcat” value in series [2] is “n.m”. The “Deamination Activity 40 mM 1,3-DMBA, kcat” value in series [3] amounted to 0.0016 ± 0.000 s⁻¹.

B4: K67M: LeuDH single variant, library 1 (protein, listed as Bacillus stearothermophilus)
chain: ELFQYMEKYDYEQVLFCQDKESGLKAIIVIHDTTLGPALGGTRMWMYNSEEEALEDALRLARGMTYMNAAAGLNLGGGKTVIIGDPRKDKNEAMFRAFGRFIQGLNGRYITAEDVGTTVADMDIIYQETDYVTGISPEFGSSGNPSPATAYGVYRGMKAAAKEAFGSDSLEGKVVAVQGVGNVAYHLCRHLHEEGAKLIVTDINKEAVARAVEEFGAKAVDPNDIYGVECDIFAPCALGGIINDQTIPQLKAKVIAGSADNQLKEPRHGDMIHEMGIVYAPDYVINAGGVINVADELYGYNRERAMKKIEQIYDNIEKVFAIAKRDNIPTYVAADRMAEERIETMRKARSQFLQNGHHILSRRRAR
On to B4, for which, in series [2] (MIBK), the “activity for reductive amination” value amounted to 0.2 mU mg^−1 and the “Reductive amination specific activity” value was found to be 0.0002 U mg^−1 protein. In addition, in series [3], the “activity in the oxidative deamination of racemic 1,3-DMBA” value worked out at 3.4 mU mg^−1 and the “Oxidative deamination specific activity” value is 0.0034 U mg^−1 protein.

B5: K67M/E113V/N261V/V290C: LeuDH-AmDH variant, SEQ ID NO:8, library 10 (protein)
chain: ELFQYMEKYDYEQVLFCQDKESGLKAIIVIHDTTLGPALGGTRMWMYNSEEEALEDALRLARGMTYMNAAAGLNLGGGKTVIIGDPRKDKNEAMFRAFGRFIQGLNGRYITAVDVGTTVADMDIIYQETDYVTGISPEFGSSGNPSPATAYGVYRGMKAAAKEAFGSDSLEGKVVAVQGVGNVAYHLCRHLHEEGAKLIVTDINKEAVARAVEEFGAKAVDPNDIYGVECDIFAPCALGGIINDQTIPQLKAKVIAGSADVQLKEPRHGDMIHEMGIVYAPDYVINAGGCINVADELYGYNRERAMKKIEQIYDNIEKVFAIAKRDNIPTYVAADRMAEERIETMRKARSQFLQNGHHILSRRRAR
B5: in series [2] (20 mM substrate), the “Specific activity, acetophenone” value amounted to 3.5 mU mg^−1 protein; the “Specific activity, cyclohexanone” value is on record as 18.8 mU mg^−1 protein; the “Specific activity, ethyl pyruvate” value came to 19.8 mU mg^−1 protein; the “Specific activity, ethyl-3-oxohexanoate” value is reported as 6.4 mU mg^−1 protein. Besides, the “Specific activity, methyl acetoacetate” value in series [2] (20 mM substrate) came out at 4.5 mU mg^−1 protein. In addition, the Km in series [2] (setting [5]) came out at 10.3 mM. The “Reductive amination specific activity” value in series [2] (MIBK) turned out to be 0.089 U mg^−1 protein. The “Amination of MIBK Vmax” value in series [2] (setting [6]) is recorded as 0.084 ± 0.01. In addition, in series [2] (setting [7]), the Km was found to be 21 ± 8.5 mM. For the same molecule, the “Specific activity, (R/S)-MBA” value in series [3] (40 mM racemic, 20 mM of each enantiomer) was determined as 484.0 mU mg^−1 protein. Further, in series [3] (setting [8]), the Km amounted to 30.9 mM. Moreover, the “Oxidative deamination specific activity” value in series [3] came to 2.81 U mg^−1 protein. Besides, the “Deamination of 1,3-DMBA Vmax” value in series [3] (setting [6]) is 2.894 ± 0.44. In addition, the Km in series [3] (setting [9]) amounted to 33.1 ± 13 mM. Also, in series [4], the “Specific activity, (R)-MBA” value turned out to be 476.5 mU mg^−1 protein and the “Specific activity, (S)-MBA” value is on record as 5.0 mU mg^−1 protein.

B6: K67M, E113V: LeuDH-AmDH variant, SEQ ID NO:5 (protein)
chain: ELFQYMEKYDYEQVLFCQDKESGLKAIIVIHDTTLGPALGGTRMWMYNSEEEALEDALRLARGMTYMNAAAGLNLGGGKTVIIGDPRKDKNEAMFRAFGRFIQGLNGRYITAVDVGTTVADMDIIYQETDYVTGISPEFGSSGNPSPATAYGVYRGMKAAAKEAFGSDSLEGKVVAVQGVGNVAYHLCRHLHEEGAKLIVTDINKEAVARAVEEFGAKAVDPNDIYGVECDIFAPCALGGIINDQTIPQLKAKVIAGSADNQLKEPRHGDMIHEMGIVYAPDYVINAGGVINVADELYGYNRERAMKKIEQIYDNIEKVFAIAKRDNIPTYVAADRMAEERIETMRKARSQFLQNGHHILSRRRAR
For B6, the “Reductive amination specific activity” value in series [2] (MIBK) is reported as 0.015 U mg^−1 protein. Besides, the Km in series [3] (setting [8]) was determined as 48 mM. Besides, the “Oxidative deamination specific activity” value in series [3] is listed as 0.65 U mg^−1 protein.

B7: K67M/E113V/N261C/V290C: LeuDH-AmDH variant, SEQ ID NO:9, library 10 (protein)
chain: ELFQYMEKYDYEQVLFCQDKESGLKAIIVIHDTTLGPALGGTRMWMYNSEEEALEDALRLARGMTYMNAAAGLNLGGGKTVIIGDPRKDKNEAMFRAFGRFIQGLNGRYITAVDVGTTVADMDIIYQETDYVTGISPEFGSSGNPSPATAYGVYRGMKAAAKEAFGSDSLEGKVVAVQGVGNVAYHLCRHLHEEGAKLIVTDINKEAVARAVEEFGAKAVDPNDIYGVECDIFAPCALGGIINDQTIPQLKAKVIAGSADCQLKEPRHGDMIHEMGIVYAPDYVINAGGCINVADELYGYNRERAMKKIEQIYDNIEKVFAIAKRDNIPTYVAADRMAEERIETMRKARSQFLQNGHHILSRRRAR
Turning to B7, the Michaelis constant (Km) in series [2] (setting [5]) stood at 21.6 mM; in series [2] (setting [7]), 21.6 ± 11.5 mM; in series [3] (setting [8]), 14.8 mM; in series [3] (setting [9]), 14.8 ± 6.1 mM. In series [2] (MIBK), the “Reductive amination specific activity” value was 0.236 U mg^−1 protein. Further, in series [2] (setting [6]), the “Amination of MIBK Vmax” value is 0.236 ± 0.04. The “Oxidative deamination specific activity” value in series [3] is 1.76 U mg^−1 protein. For the same molecule, in series [3] (setting [6]), the “Deamination of 1,3-DMBA Vmax” value came to 1.76 ± 0.20.

The values above are taken from patent publication US8835136B2, “Engineered amine dehydrogenases and methods of use thereof” (Georgia Tech Research Corporation, priority 2012, dated 2014).
